± gives the uncertainty stated by the source.
Assay: self-splicing fitness, log relative to wild type (ln ratio); higher = more splicing; Tetrahymena group I intron in knt gene, E. coli kanamycin selection, DiMSum; sequences stand for … in CUCUCU…GGAGGGAAAAGUUAUCAGGCAUGCACCUGGUAGCUAGUCUUUAAACCAAUAGAUUGCAUCGGUUUAAAAGGCAAGACCGUCAAAUUGCGGGAAAGGGGUCAACAGCCGUUCAGUACCAAGUCUCAGGGGAAACUUUGAGAUGGCCUUGCAAAGGGUAUGGUAAUAAGCUGACGGACAUGGUCCUAACCACGCAGCCAAGUCCUAAGUCAACAGAUCUUCUGUUGAUAUGGAUGCAGUUCACAGACUAAAUGUCGGUCGGGGAAGAUGUAUUCUUCUCAUAAGAUAUAGUCGGACCUCUCCUUAAUGGGAGCUAGCGGAUGAAGUGAUGCAACACUGGAGCCGCUGGGAACUAAUUUGUAUGCGAAAGUAUAUUGAUUAGUUUUGGAGUACUCGUGGUCG
Method in brief: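 Pooled colonies went to amplicon sequencing on an Illumina HiSeq 2500 after six replicate transformations. The plates were LB agar with 100 μg/mL carbenicillin, 50 μM IPTG and 0.2% rhamnose, with or without 25 μg/mL kanamycin, incubated overnight at 37°C or 30°C. The E. coli BL21(DE3) library had all eight P1ex-region intron nucleotides randomised, the intron placed in the knt kanamycin-resistance gene on pET-22b(+). DiMSum fitness is the error-weighted combination of replicate fold changes, kanamycin against none, normalised to wild type.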

Row | Sequence | self-splicing fitness (ln) (30 °C) | self-splicing fitness (ln) (37 °C)
1 | UGUGAGCAAUAUUACGUGCU | -3.34 ± 0.29 | -3.41 ± 0.33
2 | GCUUAGCAAUAUUACGGUGG | -2.24 ± 0.19 | -2.38 ± 0.28
3 | GGAGAGCAAUAUUACGUCCA | -2.78 ± 0.2 | -0.872 ± 0.18
4 | CGGAAGCAAUAUUACGUGGA | -2.79 ± 0.14 | -2.93 ± 0.21
5 | CGCUAGCAAUAUUACGCUGA | -2.69 ± 0.2 | -2.26 ± 0.22
6 | GAGAAGCAAUAUUACGUUGU | -3.19 ± 0.19 | -3.31 ± 0.32
7 | CUGAAGCAAUAUUACGCGGG | -1.65 ± 0.17 | -1.83 ± 0.19
8 | CAGUAGCAAUAUUACGGCAC | -2.42 ± 0.21 | -2.06 ± 0.25
9 | GAUUAGCAAUAUUACGCCAU |  | -1.97 ± 0.47
10 | ACUAAGCAAUAUUACGCAGC | -2.94 ± 0.36 | -0.621 ± 0.18
11 | GUAAAGCAAUAUUACGCUGC | -2.97 ± 0.24 | -1.97 ± 0.28
12 | AAUAAGCAAUAUUACGUGUG | -1.05 ± 0.077 | -1.57 ± 0.1
13 | GCUAAGCAAUAUUACGUGGG | -2.99 ± 0.14 | -1.61 ± 0.13
14 | GACUAGCAAUAUUACGGUGC | -2.65 ± 0.14 | -1.73 ± 0.16
15 | CCCUAGCAAUAUUACGCUAG | -4.18 ± 0.34 | -2.47 ± 0.28
16 | GACUAGCAAUAUUACGCAGA | -2.34 ± 0.16 | -1.62 ± 0.17
17 | CCGCAGCAAUAUUACGAGAU | -4.09 ± 0.42 | -2.2 ± 0.19
18 | CGAUAGCAAUAUUACGUAAU | -2.55 ± 0.15 | -1.92 ± 0.15
19 | CCUAAGCAAUAUUACGUUAA | -3.22 ± 0.4 | -2.49 ± 0.22
20 | CUCGAGCAAUAUUACGUCGC | -4.4 ± 0.36 | -1.12 ± 0.19
21 | CACUAGCAAUAUUACGCGAA | -2.72 ± 0.19 | -2.74 ± 0.2
22 | UUGCAGCAAUAUUACGGGUA | -1.76 ± 0.097 | -0.893 ± 0.087
23 | GCGUAGCAAUAUUACGUGUG | -4.47 ± 0.42 | -2.77 ± 0.2
24 | UUUCAGCAAUAUUACGUUGA |  | -1.85 ± 0.34
25 | ACGCAGCAAUAUUACGAAAA | -2.91 ± 0.23 | -2.7 ± 0.2
26 | CAUUAGCAAUAUUACGCCCA | -2.43 ± 0.2 | -1.47 ± 0.24

Row | Sequence | self-splicing fitness (ln) (30 °C) | self-splicing fitness (ln) (37 °C)
27 | ACGGAGCAAUAUUACGAAAU | -2.71 ± 0.22 | -1.76 ± 0.24
28 | CAUUAGCAAUAUUACGACGC | -1.73 ± 0.39 | 
29 | UCGUAGCAAUAUUACGCAUG | -2.33 ± 0.18 | -0.84 ± 0.16
30 | AAAAAGCAAUAUUACGCUGG | -1.73 ± 0.11 | -0.618 ± 0.13
31 | CCUAAGCAAUAUUACGACUC | -3.42 ± 0.38 | -2.04 ± 0.3
32 | UCUGAGCAAUAUUACGCAUC |  | -2.47 ± 0.49
33 | AGGUAGCAAUAUUACGCCGU | -1.24 ± 0.019 | -0.852 ± 0.035
34 | AACGAGCAAUAUUACGCAUG | -4.23 ± 0.31 | -2.76 ± 0.29
35 | GAAUAGCAAUAUUACGGCAC | -0.0381 ± 0.12 | -0.000648 ± 0.15
36 | CACCAGCAAUAUUACGACGC | -3.22 ± 0.19 | -1.39 ± 0.16
37 | GUUAAGCAAUAUUACGACCG | -2.84 ± 0.48 | -1.22 ± 0.4
38 | GACCAGCAAUAUUACGCCGU | -0.962 ± 0.075 | -0.0427 ± 0.08
39 | GAUGAGCAAUAUUACGCGAC | -1.69 ± 0.17 | -0.921 ± 0.15
40 | CGAAAGCAAUAUUACGACUA | -1.51 ± 0.14 | -0.539 ± 0.13
41 | UCCAAGCAAUAUUACGAAGU | -1.09 ± 0.14 | -1.57 ± 0.15
42 | CAGGAGCAAUAUUACGCUAG | -1.28 ± 0.23 | -1.1 ± 0.27
43 | GGGCAGCAAUAUUACGACUG | -2.84 ± 0.2 | -0.716 ± 0.27
44 | UAUCAGCAAUAUUACGGUUA | -0.0611 ± 0.064 | 0.0198 ± 0.07
45 | GCCGAGCAAUAUUACGAAGA | -2.76 ± 0.16 | -2.03 ± 0.12
46 | ACCAAGCAAUAUUACGUGCA | -0.837 ± 0.065 | -0.466 ± 0.074
47 | UUCCAGCAAUAUUACGACAA | -0.945 ± 0.13 | 0.128 ± 0.16
48 | UCUUAGCAAUAUUACGAAUC | -3.32 ± 0.5 | 
49 | GACGAGCAAUAUUACGUCGU | -3.59 ± 0.24 | -2.34 ± 0.23
50 | CUAGAGCAAUAUUACGUUUA | -4.4 ± 0.24 | -0.83 ± 0.17
51 | GAAGAGCAAUAUUACGGAGU | -3.07 ± 0.46 | -2.47 ± 0.45
52 | AAGUAGCAAUAUUACGCAAG | -1.81 ± 0.17 | 0.657 ± 0.18

Row | Sequence | self-splicing fitness (ln) (30 °C) | self-splicing fitness (ln) (37 °C)
53 | GUGCAGCAAUAUUACGAGCC | -1.65 ± 0.2 | 
54 | UCGUAGCAAUAUUACGCCGU | -1.52 ± 0.14 | -0.646 ± 0.16
55 | GGCCAGCAAUAUUACGGCCG | -3.47 ± 0.22 | -3 ± 0.23
56 | CUUGAGCAAUAUUACGACUC |  | -1.67 ± 0.42
57 | UGAGAGCAAUAUUACGAGGC | -2.98 ± 0.22 | -2.17 ± 0.33
58 | GCGGAGCAAUAUUACGAUAC | -1.78 ± 0.18 | -2.35 ± 0.33
59 | GCGUAGCAAUAUUACGCAUA | -3.49 ± 0.2 | -2.17 ± 0.21
60 | AUAGAGCAAUAUUACGAUAG | -3.43 ± 0.34 | -1.62 ± 0.23
61 | UUCGAGCAAUAUUACGGGCC | -3.79 ± 0.32 | -2.21 ± 0.33
62 | AGGUAGCAAUAUUACGACAA | -0.614 ± 0.018 | -0.295 ± 0.035
63 | AUUCAGCAAUAUUACGCCAA | -2.22 ± 0.29 | -1.19 ± 0.27
64 | CAGCAGCAAUAUUACGUCCU | -2.31 ± 0.17 | -0.614 ± 0.14
65 | UAUAAGCAAUAUUACGGAUU | -3.03 ± 0.21 | -1.51 ± 0.19
66 | UGACAGCAAUAUUACGGUUG | -2.49 ± 0.13 | -1.56 ± 0.15
67 | CUUCAGCAAUAUUACGCUUU |  | -2.85 ± 0.31
68 | UGUCAGCAAUAUUACGGGAU | -3.26 ± 0.15 | -3.32 ± 0.19
69 | GAACAGCAAUAUUACGUGGU | -3.12 ± 0.11 | -1.89 ± 0.09
70 | GACUAGCAAUAUUACGGACG | -1.4 ± 0.21 | -1.85 ± 0.13
71 | GAAUAGCAAUAUUACGCACU | -0.269 ± 0.089 | 0.18 ± 0.11
72 | GGGUAGCAAUAUUACGUCUA | -0.297 ± 0.15 | 0.226 ± 0.16
73 | GACAAGCAAUAUUACGAUCU | -0.884 ± 0.079 | -0.309 ± 0.097
74 | AGCUAGCAAUAUUACGGAAC | -2.7 ± 0.2 | -2.38 ± 0.24
75 | UAUGAGCAAUAUUACGCUAA | -1.99 ± 0.23 | -2.39 ± 0.25
76 | CCAGAGCAAUAUUACGGGCG | -1.5 ± 0.085 | -0.383 ± 0.1
77 | AAUAAGCAAUAUUACGGUAU | -2.05 ± 0.099 | -1.04 ± 0.13
